Bridge positions count the residues as written; N and C are the ends. Square brackets hold non-standard residues; d marks the D form. Ends that are not written are not given here. NMeR = CN[C@@H](CCCNC(=N)N)C(=O)O
Target: T1, α4β7 (RPMI 8866 cells) (Homo sapiens, UniProt P13612+P26010)
T1 construct: host or cells: RPMI 8866 cells
T1 sequence (P13612 34-1032): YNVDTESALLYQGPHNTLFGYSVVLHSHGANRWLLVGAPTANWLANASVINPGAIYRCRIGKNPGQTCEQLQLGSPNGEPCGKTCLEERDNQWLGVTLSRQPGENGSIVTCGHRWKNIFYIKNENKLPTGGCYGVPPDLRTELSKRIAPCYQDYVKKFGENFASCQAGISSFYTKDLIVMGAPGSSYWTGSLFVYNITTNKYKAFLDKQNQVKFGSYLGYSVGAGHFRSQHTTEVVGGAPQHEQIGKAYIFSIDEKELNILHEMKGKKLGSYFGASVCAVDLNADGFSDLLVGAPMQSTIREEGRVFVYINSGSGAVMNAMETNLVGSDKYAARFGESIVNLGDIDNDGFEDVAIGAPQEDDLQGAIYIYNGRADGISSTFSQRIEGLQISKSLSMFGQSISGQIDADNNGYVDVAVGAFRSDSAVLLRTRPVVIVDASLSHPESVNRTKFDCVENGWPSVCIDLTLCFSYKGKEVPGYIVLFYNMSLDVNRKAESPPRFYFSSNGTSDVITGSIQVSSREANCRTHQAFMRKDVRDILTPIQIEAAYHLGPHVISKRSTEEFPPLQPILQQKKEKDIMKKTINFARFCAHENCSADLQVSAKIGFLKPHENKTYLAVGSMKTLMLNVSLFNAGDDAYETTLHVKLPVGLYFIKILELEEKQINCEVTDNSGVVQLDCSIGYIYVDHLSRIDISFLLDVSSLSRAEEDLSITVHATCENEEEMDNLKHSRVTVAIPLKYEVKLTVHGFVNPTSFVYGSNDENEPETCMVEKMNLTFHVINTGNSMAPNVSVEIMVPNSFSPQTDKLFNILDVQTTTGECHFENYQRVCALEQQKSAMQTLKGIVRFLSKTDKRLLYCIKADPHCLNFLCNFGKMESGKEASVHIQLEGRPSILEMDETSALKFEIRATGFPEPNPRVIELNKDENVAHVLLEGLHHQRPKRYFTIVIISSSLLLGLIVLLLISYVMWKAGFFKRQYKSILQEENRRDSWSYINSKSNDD
T1 sequence (P26010 20-798): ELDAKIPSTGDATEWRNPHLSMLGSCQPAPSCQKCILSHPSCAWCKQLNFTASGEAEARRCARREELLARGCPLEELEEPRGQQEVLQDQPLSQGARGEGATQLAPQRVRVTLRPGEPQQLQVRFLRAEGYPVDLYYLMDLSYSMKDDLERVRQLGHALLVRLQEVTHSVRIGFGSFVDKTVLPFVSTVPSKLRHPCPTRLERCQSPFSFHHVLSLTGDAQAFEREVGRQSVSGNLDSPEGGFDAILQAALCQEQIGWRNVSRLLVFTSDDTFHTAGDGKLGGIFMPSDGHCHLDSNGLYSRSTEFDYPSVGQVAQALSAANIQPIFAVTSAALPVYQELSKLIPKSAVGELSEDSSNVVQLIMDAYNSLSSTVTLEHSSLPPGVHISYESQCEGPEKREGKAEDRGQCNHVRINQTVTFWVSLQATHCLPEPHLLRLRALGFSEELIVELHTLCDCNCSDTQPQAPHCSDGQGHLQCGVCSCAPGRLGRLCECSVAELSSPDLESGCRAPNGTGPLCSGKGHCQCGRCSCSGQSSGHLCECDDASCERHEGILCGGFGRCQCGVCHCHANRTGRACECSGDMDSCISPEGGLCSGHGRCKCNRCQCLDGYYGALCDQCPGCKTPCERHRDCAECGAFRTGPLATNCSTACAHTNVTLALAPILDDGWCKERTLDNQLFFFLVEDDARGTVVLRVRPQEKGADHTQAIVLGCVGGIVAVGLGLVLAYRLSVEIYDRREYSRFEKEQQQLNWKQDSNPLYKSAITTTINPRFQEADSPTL
Assay: α4β7-MAdCAM Cell Adhesion Assay
Type: cell-based
Settings: N-Me-Arg substituted, as compared to SEQ ID NO:39
Procedure: α4β7-MAdCAM Cell Adhesion Assay
RPMI 8866 cells (Sigma #95041316) are cultured in RPMI 1640 HEPES medium (Invitrogen #22400-089) supplemented with 10% serum (Fetal Bovine Serum, Invitrogen # 16140-071), 1 mM sodium pyruvate (Invitrogen #11360-070), 2 mM L-glutamine (Invitrogen # 25030-081) and Penicillin-Streptomycin (Invitrogen # 15140-122) at 100 units of penicillin and 100 μg of streptomycin per ml. The cells are washed two times in DMEM medium (ATCC #30-2002) supplemented with 0.1% BSA, 10 mM HEPES pH 7 and 1 mM MnCl2. The cells are re-suspended in supplemented DMEM medium at a density of 4×10^6 cells/ml.
A Nunc MaxiSorp plate was coated with rh MAdCAM-1/Fc Chimera (R&D #6065-MC) at 200 ng per well in 50 ul per well in 1×PBS and incubated at 4° C. overnight. The solution was then removed by shaking, blocked with 250 ul per well PBS containing 1% BSA, and incubated at 37° C. for 1 hr. The solution was removed by shaking. peptides are diluted by serial dilution in a final volume of 50 ul per well (2× concentration). To each well, 50 ul of cells (200,000 cells) are added and the plate is incubated at 37° C., 5% CO2 for 30-45 min to allow cell adhesion. […] The plate is shaken for 5 min and the absorbance at 570 nm is measured. To calculate the dose response, the absorbance value of control wells not containing cells is subtracted from each test well.

SEQ ID NO: 48: integrin antagonist peptide substituted with N-Me-Arg (C[NMeR]SDTLCK; disulfide 1-7)
potency for α4β7 in cell adhesion assay: increased potency

From patent publication US20200017549A1, “NOVEL a4B7 PEPTIDE ANTAGONISTS” (Protagonist Therapeutics, Inc., priority 2013, published 2020)
